According to US20170058015A1 (ALBERT EINSTEIN COLLEGE OF MEDICINE, published 2017):

Assays:
[1] = target: 8.3 T cell receptor on CD8+ T cells of 8.3 TCR transgenic NOD mice (mouse (NOD)); experiment: cell-based or functional assay
[2] = target: T1, synTac 4-1BBL trimer (synTac 40+51; 4-1BBL synTac co-expressed with free 4-1BBL) (murine, UniProt P41273 50-254 (human entry), Interchain disulfide between linker Cys (GCGAS) and H-2Kd Cys84. Fc hinge disulfides join two synTac units. Two free 4-1BBL chains join each synTac-borne 4-1BBL non-covalently.); experiment: flow cytometry, Protein A microbeads coated with 4-1BB-Fc; detection antibody to the synTac heavy chain isotype
T1 construct: also called Native trimer; trimeric syntac-41BBL

An IFNγ secretion by anti-CD3 stimulated CD8+ 8.3 T cells (suppression) [1] of 100 fold was found for “synTac IGRP-PD-L1 (light chain version) (from UniProt Q9Z186 206-214; P01902 22-305) (peptide-MHC)” in this work.

B1: recombinant mouse 4-1BB-Fc fusion protein (Fc fusion, UniProt P20334 24-187, looked up)
chain: VQNSCDNCQPGTFCRKYNPVCKSCPPSTFSSIGGQPNCNICRVCAGYFRFKKFCSSTHNAECECIEGFHCLGPQCTRCEKDCRPGQELTKQGCKTCSLGTFNDQNGTGVCRPWTNCSLDGRSVLKTGTTEKDVVCGPPVVSFSPSTTISVTPEGGPGGHSLQVL
notes: From commercial sources; coated on Protein A microbeads; also called murine 4-1BB; murine receptor; not shown: Fc of the commercial fusion protein
B1: binds [2].
